Literature values as cited in US20020001615A1, “Combined interferon alfa and lipsosmal-encapsulated all-trans retinoic acid, including preparation and use” (Aronex Pharmaceuticals, Inc., priority 2000, published 2002).
Read-outs that look alike come from different tables or passages of the source.

Legend:
[1] = after three months on therapy, concomitant IFN

Row | Compound | stable for (time) (at 30° C.) | stable for (time) (at 35° C.) | peak levels of atra in the serum [1]
1 | Interferon alfa-2b | up to 14 days | up to 7 days | –
2 | CC1=C(/C=C/C(C)=C/C=C/C(C)=C/C(=O)O)C(C)(C)CCC1 [ATRA, all-trans retinoic acid] | – | – | declined
